The target of assay [1] is T1, antigen CD27 (soluble, as used in the BLI and SPR experiments) (UniProt P26842 21-192, limits assumed).
T1 sequence (looked up): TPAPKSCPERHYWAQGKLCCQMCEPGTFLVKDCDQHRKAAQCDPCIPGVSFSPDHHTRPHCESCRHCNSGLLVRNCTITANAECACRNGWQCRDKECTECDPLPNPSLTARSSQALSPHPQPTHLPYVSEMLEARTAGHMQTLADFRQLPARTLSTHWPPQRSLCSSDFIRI
The assay is described as follows: SPR, Biacore T200, CM5 chip. On the technique in general: Surface plasmon resonance follows binding to a sensor surface in real time, without labels.

The target in assay [2] is T2, CD27-mFc (Kangdai) (human, UniProt P26842 21-192, limits assumed).
T2 construct: Bought reagent; also called antigen CD27-mFc; solid-phase human CD27; not shown: mouse Fc (mFc)
T2 sequence (looked up): T1 sequence (looked up)
Nature of the assay: competition ELISA: CD70 coated, CD27-mFc plus antibody dilutions; competitor CD70. In general terms: An ELISA detects its analyte on a solid surface through an enzyme-linked reagent.

The target of assay [3] is T3, human CD27 (transmembrane protein) on the cell membrane (human, UniProt P26842 20-260).
T3 construct: whole, on cells; One molecule is used for CD27 on CHO-CD27 cells, on human PBMC T and B cells and on Jurkat reporter cells; also called CHO-CD27
T3 sequence (looked up): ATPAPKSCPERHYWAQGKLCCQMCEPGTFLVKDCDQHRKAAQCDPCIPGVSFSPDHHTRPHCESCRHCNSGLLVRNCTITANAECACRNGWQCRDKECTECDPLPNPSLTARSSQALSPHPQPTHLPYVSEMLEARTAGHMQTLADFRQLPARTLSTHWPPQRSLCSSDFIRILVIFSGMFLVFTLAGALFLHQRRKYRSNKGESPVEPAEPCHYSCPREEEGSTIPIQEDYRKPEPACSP
The assay is described as follows: flow cytometry on CHO cells expressing human CD27. In general terms: A flow cytometer gives signals particle by particle.

For assay [4], the target named is T2, CD27-mFc (Kangdai). The assay is described as follows: ELISA on coated CD27-mFc.
For assay [5], the target named is T2, CD27-mFc (Kangdai). Nature of the assay: ELISA on coated CD27-mFc. The source holds these as a separate data set.
Assay [6] addresses T4, human CD64 on CHO-K cells (CHO-CD64) (human, UniProt P12314 16-374).
T4 construct: whole, on cells; also called membrane CD64
Nature of the assay: flow cytometry on CHO-CD64 cells, FITC anti-human Fc detection (Example 16).

For assay [7], the target named is T2, CD27-mFc (Kangdai). The assay is described as follows: competition ELISA: coated CD70 (1 ug/mL), CD27-mFc plus antibody dilution, HRP anti-mouse Fc detection, absorption at 450/655 nm (Example 15.3); blocked ligand CD70.
Assay [8] deals with T5, human CD32a on Jurkat cells (Jurkat-CD32a) (human, UniProt P12318 34-317).
T5 construct: whole, on cells; also called membrane CD32a
T5 sequence (looked up): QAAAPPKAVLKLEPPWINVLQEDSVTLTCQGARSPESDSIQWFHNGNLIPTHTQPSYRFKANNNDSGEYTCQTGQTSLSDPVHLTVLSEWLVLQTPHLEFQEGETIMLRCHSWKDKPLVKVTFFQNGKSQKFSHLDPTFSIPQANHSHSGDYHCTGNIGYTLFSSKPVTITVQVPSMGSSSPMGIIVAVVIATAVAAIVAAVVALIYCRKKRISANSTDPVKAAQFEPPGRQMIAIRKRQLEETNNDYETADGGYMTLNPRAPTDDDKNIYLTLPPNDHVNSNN
The assay is described as follows: flow cytometry on Jurkat-CD32a cells, FITC anti-human Fc detection (Example 16).

Assay [9] addresses T2, CD27-mFc (Kangdai). Nature of the assay: ELISA on coated CD27-mFc (1 ug/mL), AP anti-human Fc detection, absorption at 405/490 nm (Example 15.2).
Assay [10] addresses T2, CD27-mFc (Kangdai). The assay is described as follows: competition ELISA: CD70 coated, CD27-mFc plus antibody dilutions; competitor CD70. The source holds these as a separate data set.
For assay [11], the target named is T2, CD27-mFc (Kangdai). The assay is described as follows: ELISA on coated CD27-mFc. This is another data set of the same source.
The target in assay [12] is T1, antigen CD27 (soluble, as used in the …). The assay is described as follows: BLI, antibody captured on AHC probe, CD27 in solution.
Assay [13] concerns the target T2, CD27-mFc (Kangdai). The assay is described as follows: competition ELISA: CD70 coated, CD27-mFc 4.3 µg/mL plus antibody dilutions; competitor CD70.
The target in assay [14] is T3, human CD27 (transmembrane protein) on …. The assay is described as follows: flow cytometry on CHO cells expressing human CD27. The source holds these as a separate data set.
The target in a further assay is T6, mouse CD27 (mouse, UniProt P41272 24-182, limits assumed).
T6 sequence (looked up): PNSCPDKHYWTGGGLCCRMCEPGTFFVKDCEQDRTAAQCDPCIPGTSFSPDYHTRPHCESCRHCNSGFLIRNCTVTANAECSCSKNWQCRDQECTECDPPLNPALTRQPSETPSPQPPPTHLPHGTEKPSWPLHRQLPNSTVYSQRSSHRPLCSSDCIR
Nature of the assay: hybridoma screening; format not described.

Residue numbers refer to the chain shown, from its start. Several values for one entry are separate records, joined by “and”; a condition that tells them apart may be missing. Equal entries are not always repeated. Where two headings read alike, the source gives them in different places.

T4 sequence (P12314 16-374): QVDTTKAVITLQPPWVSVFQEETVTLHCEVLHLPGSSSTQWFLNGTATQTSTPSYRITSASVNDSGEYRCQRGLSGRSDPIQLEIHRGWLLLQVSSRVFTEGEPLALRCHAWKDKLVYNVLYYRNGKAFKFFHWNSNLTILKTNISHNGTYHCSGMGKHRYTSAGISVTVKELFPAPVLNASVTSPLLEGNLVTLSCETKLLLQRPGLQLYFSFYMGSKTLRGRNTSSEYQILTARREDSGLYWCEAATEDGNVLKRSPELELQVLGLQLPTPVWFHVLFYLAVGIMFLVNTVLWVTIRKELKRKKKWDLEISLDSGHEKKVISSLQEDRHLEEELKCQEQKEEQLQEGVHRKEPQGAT

B1: 13B3-huH2L3 (P33430) humanized CD27 monoclonal antibody (antibody, human IgG1)
heavy: not shown
VL: DIVLTQSPATLSVSPGERVTLSCRASQSVSNSLHWYQQKPGQAPRLLIMYTSQSISGIPARFSGSGSGTDFTLTISSVEPEDFAVYYCQQSNSWPLTFGGGTKLELK
notes: also called huVH2 + huVL3
Usually Kd stands for a measure of binding affinity in units of concentration. Lower therefore signals tighter binding. In general, koff refers to a measure of how fast the partners let go of each other. A higher koff goes with fast dissociation. The kon is a measure of how fast the partners come together. For orientation: IC50 means the concentration that gives 50% inhibition. A word on the EC50: it is the concentration at which the effect is half-maximal. Read a high EC50 as weaker potency. In assay [1], B1 came in with a Kd of 391 pM, a koff of 0.000684 s⁻¹ and a kon of 1.75e+06 M⁻¹ s⁻¹. Moreover, in the assay with CD27-mFc (Kangdai) [2], the IC50 is 1.95 µg/mL and 13.1 nM. The EC50 in [3] was 0.211 µg/mL and 1.41 nM. The EC50 with CD27-mFc (Kangdai) [4] is 0.0418 µg/mL and 0.28 nM.

B2: 13B3-huH3L4 (P33434) humanized CD27 monoclonal antibody (antibody, V domains shown)
VH: QVQLVQSGAEVKKPGASVKVSCKTSGYAFSQSWMNWVRQAPGQGLEWIGRIYPGDGDTNYNGIFQGRVTLTADTSISTAYMELSRLRSDDTAVYYCASMIRTTYVMDHWGQGTTVTVSS
VL: B1 VL with D1E, V13L, V19A, V78L
notes: also called huVH3 + huVL4
As for B2, the IC50 with CD27-mFc (Kangdai) [2] is 1.75 µg/mL and 11.7 nM. Besides, the concentration giving a half-maximal response (EC50) in assay [3] was 0.242 µg/mL and 1.62 nM; with CD27-mFc (Kangdai) [4] it was 0.0361 µg/mL and 0.242 nM.

B3: 13B3-huH2L4 (LALA) variant antibody (antibody, human IgG1, L234A L235A)
heavy: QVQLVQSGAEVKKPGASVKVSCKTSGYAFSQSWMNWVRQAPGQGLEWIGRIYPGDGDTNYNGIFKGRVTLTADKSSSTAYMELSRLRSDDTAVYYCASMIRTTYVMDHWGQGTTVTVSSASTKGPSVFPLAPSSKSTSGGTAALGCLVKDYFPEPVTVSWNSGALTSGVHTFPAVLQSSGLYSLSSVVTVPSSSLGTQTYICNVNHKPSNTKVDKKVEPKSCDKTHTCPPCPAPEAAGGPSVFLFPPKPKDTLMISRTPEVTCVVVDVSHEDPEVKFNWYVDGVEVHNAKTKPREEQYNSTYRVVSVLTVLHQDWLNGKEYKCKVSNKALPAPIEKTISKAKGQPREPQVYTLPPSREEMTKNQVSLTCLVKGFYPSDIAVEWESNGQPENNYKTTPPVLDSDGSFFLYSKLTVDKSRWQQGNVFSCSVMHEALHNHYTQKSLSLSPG
VL: B1 VL with D1E, V13L, V19A, V78L
notes: The light chain is that of 13B3-huH2L4 (huVL4); also called mutant antibody
Take B3: in the assay with CD27-mFc (Kangdai) [5], the EC50 was 0.029 µg/mL. The binding result in [6] and in assay [8] was “no binding (tested: 10 µg/mL)” in each case. In addition, the IC50 in the assay with CD27-mFc (Kangdai) [7] came out at 1.12 µg/mL.

B4: 13B3-huH2L3 (LALA) variant antibody (antibody, human IgG1, L234A L235A)
heavy: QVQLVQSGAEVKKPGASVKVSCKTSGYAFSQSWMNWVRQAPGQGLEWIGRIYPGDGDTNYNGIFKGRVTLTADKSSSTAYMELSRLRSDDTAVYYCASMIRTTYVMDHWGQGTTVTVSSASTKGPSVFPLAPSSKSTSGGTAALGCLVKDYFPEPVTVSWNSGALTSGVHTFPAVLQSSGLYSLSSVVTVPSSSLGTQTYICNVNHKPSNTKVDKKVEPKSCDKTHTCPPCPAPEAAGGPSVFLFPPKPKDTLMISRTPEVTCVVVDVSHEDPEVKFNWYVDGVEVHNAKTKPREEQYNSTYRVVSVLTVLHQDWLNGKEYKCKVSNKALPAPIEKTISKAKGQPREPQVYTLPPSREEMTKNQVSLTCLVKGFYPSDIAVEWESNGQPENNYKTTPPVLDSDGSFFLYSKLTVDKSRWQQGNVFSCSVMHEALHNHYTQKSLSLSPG
VL: B1 VL
notes: The light chain is that of 13B3-huH2L3 (huVL3)
Take B4: the EC50 in the assay with CD27-mFc (Kangdai) [9] stood at 0.037 µg/mL. Besides, the IC50 with CD27-mFc (Kangdai) [10] is 1.09 µg/mL.

B5: 13B3-huH2L4 (P33433) humanized CD27 monoclonal antibody (antibody, human IgG1)
heavy: not shown
VL: B1 VL with D1E, V13L, V19A, V78L
notes: also called huVH2 + huVL4; parent antibody (wild-type)
One may read the EC50 (read off the curve) as the concentration that produces a half-maximal response. Higher therefore signals a less potent agent. For the molecule B5, the EC50 in the assay with CD27-mFc (Kangdai) [5] is 0.029 µg/mL; in assay [3] it was 0.224 µg/mL and 1.5 nM; in the assay with CD27-mFc (Kangdai) [4], 0.0409 µg/mL and 0.274 nM. For the same molecule, in assay [6], the “EC50 (read off the curve)” value is about 0.7 µg/mL. Also, the IC50 with CD27-mFc (Kangdai) [10] is 1.31 µg/mL; in the assay with CD27-mFc (Kangdai) [2], 1.91 µg/mL and 12.8 nM.

B6: 13B3-huH4L3 (P33432) humanized CD27 monoclonal antibody (antibody, V domains shown)
VH: B2 VH with I48M, N61A, G62Q, I63K, L70M
VL: B1 VL
With B6, in the assay with CD27-mFc (Kangdai) [2], the IC50 was 1.91 µg/mL and 12.8 nM.

B7: 13B3-huH4L1 (P33425) humanized CD27 monoclonal antibody (antibody, V domains shown)
VH: B2 VH with I48M, N61A, G62Q, I63K, L70M
VL: EIVLTQSPDFLSVTPKEKVTLTCRASQSVSNSLHWYQQKPDQSPKLLIMYTSQSISGIPSRFSGSGSGTDFTLTINSVEAEDAATYYCQQSNSWPLTFGGGTKLELK
notes: also called huVH4 + huVL1
In assay [1], B7 had a Kd of 699 pM, a koff of 0.00135 s⁻¹ and a kon of 1.93e+06 M⁻¹ s⁻¹. Also, the EC50 in assay [3] is 0.19 µg/mL and 1.27 nM. The EC50 with CD27-mFc (Kangdai) [4] is 0.0371 µg/mL and 0.249 nM.

B8: 13B3-huH2L2 (P33426) humanized CD27 monoclonal antibody (antibody, V domains shown)
VH: B2 VH with Q65K, T74K, I76S
VL: IVLTQSPDFQSVTPKEKVTITCRASQSVSNSLHWYQQKPDQSPKLLIMYTSQSISGVPSRFSGSGSGTDFTLTINSLEAEDAATYYCQQSNSWPLTFGGGTKLELK
notes: also called huVH2 + huVL2
For the molecule B8, in [1], the affinity, expressed as Kd, was 643 pM; the koff came to 0.00106 s⁻¹; the kon amounted to 1.65e+06 M⁻¹ s⁻¹. Moreover, the IC50 in the assay with CD27-mFc (Kangdai) [2] is 1.92 µg/mL and 12.8 nM. In assay [3], the EC50 is 0.221 µg/mL and 1.48 nM. In addition, in the assay with CD27-mFc (Kangdai) [4], the EC50 was 0.0486 µg/mL and 0.325 nM.

B9: 13B3-hFc human-mouse chimeric CD27 monoclonal antibody (antibody, V domains shown)
VH: QVQLQQSGPEQVKPGASVKISCKTSGYAFSQSWMNWVKQRPGQGLEWIGRIYPGDGDTNYNGIFKGKATLTADKSSSTAYMQLSSLTSLDSAVYFCASMIRTTYVMDHWGQGTSVTVTS
VL: DIVLTQSPATLSVTPGDSVSLSCRASQSVSNSLHWYQQKSHESPRLLIMYTSQSISGIPSRFSGSGSGTDFTLSINSVETEDFGMYFCQQSNSWPLTFGAGTKLELK
notes: Mouse 13B3 variable regions on human constant regions (expression vectors P378 and P379, made in 293F cells)
For the molecule B9, the EC50 is 0.0344 µg/mL with CD27-mFc (Kangdai) [11]; 0.0503 µg/mL and 0.337 nM with CD27-mFc (Kangdai) [4]; 2.49 µg/mL in assay [14]. Also, the Kd in [12] worked out at 1230 pM; in assay [1], 781 pM. Also, the koff in assay [12] came out at 0.000222 s⁻¹; in [1], 0.000954 s⁻¹. Also, the figures for the kon in assay [12] and in [1] were 181000 M⁻¹ s⁻¹ and 1.22e+06 M⁻¹ s⁻¹, respectively. Also, the IC50 was 1.47 µg/mL with CD27-mFc (Kangdai) [13]; 2.06 µg/mL and 13.8 nM with CD27-mFc (Kangdai) [2].

B10: 13B3 anti-human CD27 mouse monoclonal antibody (hybridoma clone) (antibody, V domains shown)
VH: B9 VH
VL: B9 VL
notes: also called 16B1-1-1
Turning to B10, the binding result with mouse CD27 was “no binding”.

B11: 16B1 anti-human CD27 mouse monoclonal antibody (hybridoma clone) (antibody, V domains shown)
VH: B9 VH
VL: B9 VL
notes: Tested as hybridoma supernatant; also called 16B1-1-1
Regarding B11, in the assay with mouse CD27, the binding result is on record as “no binding”.

B12: 17H8-hFc human-mouse chimeric CD27 monoclonal antibody (antibody, V domains shown)
VH: EVKLEESGGGLVQPGGSMKLSCVASGFTFSNYWMNWVRQSPEKGLEWVAEIRLKSNNYATYYAESVKGRFTISRDDSKSSVYLQMNSLRGEDTGIYYCTLYDSSYYYAMDYWGQGTSVTVSS
VL: DVVLTQTPLSLPVNIGDQASISCKSTQSLLHSDGFTYLDWYLQKPGQSPQLLIYLVSNRFLGVPDRFSGSGSRTDFTLKISRVEAEDLGVYYCFQSNYLPLTFGGGTKLEI
notes: Mouse 17H8 variable regions on human constant regions
In turn, B12 showed an EC50 in the assay with CD27-mFc (Kangdai) [11] of 0.0754 µg/mL. In assay [12], this molecule had a Kd of 1300 pM, a koff of 0.00016 s⁻¹ and a kon of 123000 M⁻¹ s⁻¹. This molecule registered an EC50 in [14] of about 90.6 µg/mL.

B13: 17H8 anti-human CD27 mouse monoclonal antibody (hybridoma clone) (antibody, V domains shown)
VH: B12 VH
VL: B12 VL
notes: also called 17H8-1-1
For B13, in the assay with mouse CD27, the binding result is “no binding”.

The values above are taken from patent US20260265393A1 (SHANGHAI CELGEN BIO PHARMACEUTICAL, published 2026).
